Data from patent publication US20030186915A1, “Regulatory polynucleotides and uses thereof” (priority 2002, published 2003).

Legend:
SOST regulatory region = assay: Transactivation of SOST reporter constructs by co-transfected expression plasmids in SAOS cells; format: cell-based, human; details: factor overexpressed, 48 hrs after transfection
Procedure: To determine whether transfected Cbfa1 could drive further increases in the transcriptional activity of the SOST promoter, the Cbfa1 gene was recovered from an SAOS cDNA library and inserted it into a mammalian expression vector.
To test the effects of the two proteins Cbaf1 and MyoD on transactivitation of the 1.8 kb SOST regulatory region, the following tests were performed. SAOS cells were transfected with 500 ng of either the EcoRV fragment (nucleotides 1673 to 1814 of SEQ ID NO: 1) or 1.8 kb SOST regulatory region (nucleotides 1 to 1841 of SEQ ID NO:1) and the indicated combinations of expression plasmids for MyoD (150 ng) or Cbfa1 (30 ng, 300 ng). pBluescript (Stratagene) was used as needed to bring the DNA total to 1 μg per well, and SEAP (20 ng) was used to normalize for transfection efficiency. Cells were harvested 48 hrs after transfection. Both the SOST-luc and the EcoRV fragment were activated by Cbaf1 and MyoD.

SAOS cells = assay: Luciferase reporter assay of SOST regulatory region constructs, transient transfection; format: cell-based, human; details: deletion constructs in pGL2-Basic

| Molecule | activity of the 1.8 kb SOST regulatory region reporter (SOST-luc) (SOST regulatory region) | activity of the EcoRV fragment reporter (SOST regulatory region) | increase in luciferase activity over the 1.8 kb SOST regulatory region (SAOS cells) | activity of the 1.8 kb SOST regulatory region reporter (SOST-luc) (SOST regulatory region; listed as Cbaf1) | activity of the EcoRV fragment reporter (SOST regulatory region; listed as Cbaf1) |
| --- | --- | --- | --- | --- | --- |
| MyoD: transcription factor overexpressed from an expression plasmid (150 ng) (protein, UniProt P15172 1-320, looked up) Myoblast determination …: MELLSPPLRDVDLTAPDGSLCSFATTDDFYDDPCFDSPDLRFFEDLDPRLMHVGALLKPEEHSHFPAAVHPAPGAREDEHVRAPSGHHQAGRCLLWACKACKRKTTNADRRKAATMRERRRLSKVNEAFETLKRCTSSNPNQRLPKVEILRNAIRYIEGLQALLRDQDAAPPGAAAAFYAPGPLPPGRGGEHYSGDSDASSPRSNCSDGMMDYSGPPSGARRRNCYEGAYYNEAPSEPRPGKSAAVSSLDCLSSIVERISTESPAAPALLLADVPSESPPRRQEAAAPSEGESSGDPTQSPDAAPQCPAGANPNPIYQVL | activated | activated | – | – | – |
| EcoRV to BglII fragment: about 142 nucleotides, nucleotides 1673 to 1814 of SEQ ID NO: 1, in luciferase reporter construct (nucleic acid, listed as Homo sapiens, in luciferase reporter construct) DNA: ATCTGAAAACCACAGCCGCCAGCACGTGGGAGGTGCCGGAGAGCAGGCTTGGGCCTTGCCTCACACGCCCCCTCTCTCTGGGTCACCTGGGAGTGCCAGCAGCAATTTGGAAGTTTGCTGAGCTAGAGGAGAAGTCTTTGGG | – | – | almost three fold | – | – |
| Cbfa1: transcription factor; gene recovered from an SAOS cDNA library, overexpressed from a mammalian expression vector (protein) MASNSLFSTVTPCQQNFFWDPSTSRRFSPPSSSLQPGKMSDVSPVVAAQQQQQQQQQQQQQQQQQQQQQQQEAAAAAAAAAAAAAAAAAVPRLRPPHDNRTMVEIIADHPAELVRTDSPNFLCSVLPSHWRCNKTLPVAFKVVALGEVPDGTVVTVMAGNDENYSAELRNASAVMKNQVARFNDLRFVGRSGRGKSFTLTITVFTNPPQVATYHRAIKVTVDGPREPRRHRQKLDDSKPSLFSDRLSDLGRIPHPSMRVGVPPQNPRPSLNSAPSPFNPQGQSQITDPRQAQSSPPWSYDQSYPSYLSQMTSPSIHSTTPLSSTRGTGLPAITDVPRRISDDDTATSDFCLWPSTLSKKSQAGASELGPFSDPRQFPSISSLTESRFSNPRMHYPATFTYTPPVTSGMSLGMSATTHYHTYLPPPYPGSSQSQSGPFQTSSTPYLYYGTSSGSYQFPMVPGGDRSPSRMLPPCTTTSNGSTLLNPNLPNQNDGVDADGSHSSSPTVLNSSGRMDESVWRPY | increased activity | increased activity | – | activated | activated |
